Test results published in article PMC7016264, “Redox requirements for ubiquitin-like urmylation of Ahp1, a 2-Cys peroxiredoxin from yeast” (Redox Biology, 2020).

Biological target: the molecule itself
Assay: SEC-MALS; proteins reduced with 50 mM DTT, exchanged into 20 mM HEPES pH 7.5, 100 mM NaCl, 1 mM TCEP, diluted to 125 uM; dimer to monomers

B1: His-tagged Ahp1, wild-type (recombinant) (enzyme, S. cerevisiae, UniProt P38013 1-176, looked up)
chain: MSDLVNKKFPAGDYKFQYIAISQSDADSESCKMPQTVEWSKLISENKKVIITGAPAAFSPTCTVSHIPGYINYLDELVKEKEVDQVIVVTVDNPFANQAWAKSLGVKDTTHIKFASDPGCAFTKSIGFELAVGDGVYWSGRWAMVVENGIVTYAAKETNPGTDVTVSSVESVLAHL
notes: Ahp1, 2-Cys peroxiredoxin of Saccharomyces cerevisiae; The printed mass of the His-tagged monomer is ~23.3 kDa (dimer 46.7 kDa) against ~19 kDa for untagged Ahp1, so vector-derived residues are probably present; also called wild-type Ahp1; wt Ahp1; source: E. coli, purified (His-tagged)
stoichiometry N: 2
